Assay results: doi:10.1101/2024.07.10.602906

Experiments:
[1] = biological target: GV CW1 murine norovirus VP1 P-domain (wild type) (murine norovirus (GV, MNV-1 CW1)) (UniProt Q80J95); test: methyl TROSY NMR
[2] = biological target: GV CW1 murine norovirus VP1 P-domain (wild type) (murine norovirus (GV, MNV-1 CW1)) (UniProt Q80J95); test: NMR titration

GV CW1 murine norovirus VP1 P-domain (wild type) (from UniProt Q80J95 228-530) (domain or fragment)
percent dimers at pH* 5.3 [1]: > 70% | percent monomers at pH 7.4 [1]: 70% | Kd [2]: 45 µM | koff [2]: 4.7 s⁻¹
